Measurements reported in patent publication US20210002656.

Biological target: T1, I-SceI (UniProt P03882)
T1 sequence: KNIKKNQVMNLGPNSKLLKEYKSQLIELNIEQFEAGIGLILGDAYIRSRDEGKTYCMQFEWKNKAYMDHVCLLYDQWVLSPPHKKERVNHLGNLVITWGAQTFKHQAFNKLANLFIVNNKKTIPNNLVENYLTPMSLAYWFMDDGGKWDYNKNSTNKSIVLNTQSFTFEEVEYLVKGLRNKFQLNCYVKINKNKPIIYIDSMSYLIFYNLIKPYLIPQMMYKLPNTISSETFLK
Assay: cell_activity
Settings: protein delivered to N. tabacum protoplasts, SSA assay; 0.49% when delivered as DNA; 2.4% sequential delivery

Q: With I-SceI site in YFP SSA plasmid as the substance, how does the activity read?
A: 4.4 % YFP
